Data as given in patent publication US20150064177A1 (ELAN PHARMACEUTICALS, published 2015).

Target: T1, human α4β1 integrin (human, UniProt P13612 34-1032; P05556 21-798)
T1 construct: whole, on cells; In the ELISA it is on transformed L cells; In the adhesion assays it is on human U937 monocytic cells and human Jurkat T cells; also called VLA-4; alpha-4-beta-1 integrin
Experiment: cell ELISA of crude Cos supernatants on L cells expressing α4β1 integrin
Procedure: Briefly, L cells transformed to express a4β1 integrin on their cell surface were plated out and grown to confluence in 96-well tissue culture plates. The samples to be tested (either crude supernatants or protein-A-purified) were serially diluted and added to each well. After incubation for 1 h on ice and very gentle washing, goat anti-mouse or anti-human (gamma-chain specific) peroxidase conjugates (Sigma) were added. After a further 1 h incubation on ice and very gentle washing, the substrate (o-phenylenediamine dihydrochloride, Sigma) was added. After incubation for 30 min at room temperature, the reaction was stopped by adding 1 M H₂SO₄, and the A₄₉₀ was measured.

binding result: binds
B1: reshaped human 21.6 antibody (La+Ha) (antibody, human IgG1, V domains shown)
VH: QVQLVQSGAEVKKPGASVKVSCKASGFNIKDTYIHWVRQAPGQRLEWMGRIDPANGYTKYDPKFQGRVTITADTSASTAYMELSSLRSEDTAVYYCAREGYYGNYGVYAMDYWGQGTLVTVSS
VL: DIQMTQSPSSLSASVGDRVTITCKTSQDINKYMAWYQQTPGKAPRLLIHYTSALQPGIPSRFSGSGSGRDYTFTISSLQPEDIATYYCLQYDNLWTFGQGTKVEIK
notes: Human IgG1 kappa, expressed in Cos cells; not shown: human gamma-1 heavy chain constant region; human kappa light chain constant region
